Experiment in all cases: ITC; MicroCal iTC200, 25°C, 20 mM Tris/HCl pH 9.0, 100 mM NaCl; SH3B6, sdAb19 or Neffin at 200 μM injected from the syringe into 20 μM Nef in the cell
The target of test [1] is HIV-1 NefSF2 (45–210, C59S, C210A) (HIV-1 (SF2)) (UniProt P03407).
Test [2] addresses HIV-1 NefNA7 (41–206, C206A) (HIV-1 (NA7)).
For test [3], the target named is HIV-1 Nef_(NL4–3) (41–206, C206A) (HIV-1 (NL4-3)).

The results in this text go back to paper PMC4007562.

In general, Kd refers to a measure of binding affinity in units of concentration. Read a low Kd as tighter binding. A word on the stoichiometry N: it is a count of units in the complex or per binding partner.

In test [1], “human Hck-SH3B6 (residues 79–138 of human Hck) (from UniProt P08631 79-138) (designed binder)” returned a Kd of 18.7 nM, a dH of -22.5 kcal/mol and a stoichiometry N of 0.81.
In test [2], “Neffin (sdAb19–SH3B6 fusion, 8 aa linker) (from UniProt P08631 77-138) (designed binder)” displayed a Kd of 14.4 nM, a dH of -34.7 kcal/mol and a stoichiometry N of 0.67. In test [1], this substance had a Kd of 1.6 nM, a dH of -38.3 kcal/mol and a stoichiometry N of 0.66. For the same substance, in test [3], the Kd turned out to be 3.9 nM, the dH was -33.2 kcal/mol and the stoichiometry N is 0.65.
As for “Neffin_(triple) (Neffin with D60R/G102R/S103E in the sdAb19 subunit) (from UniProt P08631 77-138) (designed binder)”, in test [1], the Kd is 23.3 nM, the dH was -18.1 kcal/mol and the stoichiometry N was 1.08.
